Experimental data published in patent US12661385B2, “Modulation of mTORCI activity and autophagy via CIB2-RHEB interaction” (University of Maryland, Baltimore, priority 2018, dated 2026).

Tests used:
RPE-J cells [1] = test: LC3-II induction / LC3 flux immunoblots in transfected RPE-J cells; format: cell-based, rat; settings: RPE-J cells overexpressing CIB2 vs GFP, in the presence of bafilomycin A1, 24 hrs
Procedure: FIG. 13. Loss of CIB2, specifically in the RPE, leads to LC3 flux deficits, while CIB2 overexpression, in vitro, restores LC3 flux._a-d, RPE whole mounts treated with DMSO or 50 μM bafilomycin A1 (Baf-A1) overnight show reduced levels of LC3-II, quantified in panels b and d, in Cib2 deficient mice as compared to WT controls, indicating autophagy deficits. Ratio for WT or RPE-Cre+; Cib2^+/+ was set to 1. e. Representative immunoblots for LC3-II induction in transiently transfected (GFP or CIB2-IRES-GFP) RPE-J cells treated with DMSO, 50 μM bafilomycin-A1 (Baf-A1), or 100 nM rapamycin (Rapa) for 24 hrs. f. Quantification of LC3 flux (ratio of LC3-II/actin in Baf-A1 to DMSO treated samples) or LC3B-II/actin ratio up on rapamycin treatment for immunoblots shown in (e). […]
(§1) Complementary to the findings of Cib2 mutant mice, over-expressing CIB2 in RPE-J cells increased LAMP-1 and ATG5-ATG12 complex proteins levels (FIG. 12c-d). […] To test this idea, we assessed LC3-II flux. LC3-I is a cytosolic protein which when lipidated with a phosphatidylethanolamine adduct (LC3-II form) localizes to the growing auto/phagosome membrane, and thus can be used as a reliable readout for the dynamic autophagic process (Valapala et al., Autophagy 10, 480-496 (2014); Kim et al., Noncanonical Autophagy Promotes the Visual Cycle. Cell 154, 365-376 (2013); Klionsky et al., Autophagy 12, 1-222 (2016)). […]

RPE-J cells [2] = test: In vitro pulse-chase phagocytosis assay with opsin immunoblotting; format: cell-based, rat; settings: CIB2 overexpression vs control, chase 6 h
Source text: FIG. 12. CIB2 mutant mice have less autophagy/lysosomal proteins, and overexpression of CIB2. in vitro, is sufficient to boost levels of autophagy/lysosomal proteins and clearance of opsin. a. […] Pro-cathepsin D levels were quantified from non-saturated exposures. c. Representative immunoblots for indicated autophagy/lysosomal proteins from RPE-J cells transiently transfected with GFP or CIB2-IRES-GFP. Endogenous CIB2 is observable in long exposure immunoblot, while transiently overexpressed CIB2 is readily observable in short exposure immunoblot. d. Quantification for immunoblots shown in (c). n=5 (LAMP-1) or 4 (ATG5-ATG12) independent transfection experiments. e, Schematic of the pulse-chase phagocytosis assay (left panel)—also see Examples below. […]
as §1

B1: CIB2: calcium and integrin binding protein 2, over-expressed in cells from plasmid constructs; SEQ ID NO:1 (human), SEQ ID NO:2 (mouse) (protein)
chain: MGNKQTIFTEEQLDNYQDCTFFNKKDILKLHARFYELAPNLVPMDYRKSPIVHVPMSLIIQMPELRENPFKERIVEAFSEDGEGNLTFNDFVDMFSVLCESAPRELKANYAFKIYDFNTDNFICKEDLEMTLARLTKSELEEDEVVLVCDKVIEEADLDGDGKLGFADFEDMIAKAPDFLSTFHIRI
modifications: left off: large carriers
RPE-J cells [1]
  Relative LC3 flux (ratio of LC3-II/actin in Baf-A1 to DMSO treated samples): markedly increased
RPE-J cells [2]
  Opsin 6 hr later (digestion phase): less opsin
